Experimental data reported in patent US20180244758A1.

B1: mAb PE-87 (antibody, V domains shown)
VH: QVQLVQSGVTLVQPGGSLRVSCAASGFTFSSYAMSWVRQAPGKGLEWVSAISGLGGSTYYADSVKGRFTISRDNSKNTLYLQMNSLRAEDTAVYYCAKDHRVWAAGYHFDYWGQGALVTVSS
VL: DIVLTQSPSTLSASVGDRVTITCRASQSISSWLAWYQQKPGEAPKLLISDASSLESGVPSRFSGSGSGTEFTLTISSLQPDDFATYYCQQYYSSPTFGGGTKVEIK
B2: PE-87 Y111A (antibody, V domains shown)
VH: QVQLVQSGVTLVQPGGSLRVSCAASGFTFSSYAMSWVRQAPGKGLEWVSAISGLGGSTYYADSVKGRFTISRDNSKNTLYLQMNSLRAEDTAVYYCAKDHRVWAAGYHFDAWGQGALVTVSS
VL: DIVLTQSPSTLSASVGDRVTITCRASQSISSWLAWYQQKPGEAPKLLISDASSLESGVPSRFSGSGSGTEFTLTISSLQPDDFATYYCQQYYSSPTFGGGTKVEIK
B3: PE-87 H100A (antibody, V domains shown)
VH: QVQLVQSGVTLVQPGGSLRVSCAASGFTFSSYAMSWVRQAPGKGLEWVSAISGLGGSTYYADSVKGRFTISRDNSKNTLYLQMNSLRAEDTAVYYCAKDARVWAAGYHFDYWGQGALVTVSS
VL: DIVLTQSPSTLSASVGDRVTITCRASQSISSWLAWYQQKPGEAPKLLISDASSLESGVPSRFSGSGSGTEFTLTISSLQPDDFATYYCQQYYSSPTFGGGTKVEIK
B4: PE-87 R101A (antibody, V domains shown)
VH: QVQLVQSGVTLVQPGGSLRVSCAASGFTFSSYAMSWVRQAPGKGLEWVSAISGLGGSTYYADSVKGRFTISRDNSKNTLYLQMNSLRAEDTAVYYCAKDHAVWAAGYHFDYWGQGALVTVSS
VL: DIVLTQSPSTLSASVGDRVTITCRASQSISSWLAWYQQKPGEAPKLLISDASSLESGVPSRFSGSGSGTEFTLTISSLQPDDFATYYCQQYYSSPTFGGGTKVEIK
B5: PE-87 W103A (antibody, V domains shown)
VH: QVQLVQSGVTLVQPGGSLRVSCAASGFTFSSYAMSWVRQAPGKGLEWVSAISGLGGSTYYADSVKGRFTISRDNSKNTLYLQMNSLRAEDTAVYYCAKDHRVAAAGYHFDYWGQGALVTVSS
VL: DIVLTQSPSTLSASVGDRVTITCRASQSISSWLAWYQQKPGEAPKLLISDASSLESGVPSRFSGSGSGTEFTLTISSLQPDDFATYYCQQYYSSPTFGGGTKVEIK
B6: PE-87 D110A (antibody, V domains shown)
VH: QVQLVQSGVTLVQPGGSLRVSCAASGFTFSSYAMSWVRQAPGKGLEWVSAISGLGGSTYYADSVKGRFTISRDNSKNTLYLQMNSLRAEDTAVYYCAKDHRVWAAGYHFAYWGQGALVTVSS
VL: DIVLTQSPSTLSASVGDRVTITCRASQSISSWLAWYQQKPGEAPKLLISDASSLESGVPSRFSGSGSGTEFTLTISSLQPDDFATYYCQQYYSSPTFGGGTKVEIK
B7: PE-87 G106A (antibody, V domains shown)
VH: QVQLVQSGVTLVQPGGSLRVSCAASGFTFSSYAMSWVRQAPGKGLEWVSAISGLGGSTYYADSVKGRFTISRDNSKNTLYLQMNSLRAEDTAVYYCAKDHRVWAAAYHFDYWGQGALVTVSS
VL: DIVLTQSPSTLSASVGDRVTITCRASQSISSWLAWYQQKPGEAPKLLISDASSLESGVPSRFSGSGSGTEFTLTISSLQPDDFATYYCQQYYSSPTFGGGTKVEIK
B8: PE-87 Y107A (antibody, V domains shown)
VH: QVQLVQSGVTLVQPGGSLRVSCAASGFTFSSYAMSWVRQAPGKGLEWVSAISGLGGSTYYADSVKGRFTISRDNSKNTLYLQMNSLRAEDTAVYYCAKDHRVWAAGAHFDYWGQGALVTVSS
VL: DIVLTQSPSTLSASVGDRVTITCRASQSISSWLAWYQQKPGEAPKLLISDASSLESGVPSRFSGSGSGTEFTLTISSLQPDDFATYYCQQYYSSPTFGGGTKVEIK
B9: PE-87 H108A (antibody, V domains shown)
VH: QVQLVQSGVTLVQPGGSLRVSCAASGFTFSSYAMSWVRQAPGKGLEWVSAISGLGGSTYYADSVKGRFTISRDNSKNTLYLQMNSLRAEDTAVYYCAKDHRVWAAGYAFDYWGQGALVTVSS
VL: DIVLTQSPSTLSASVGDRVTITCRASQSISSWLAWYQQKPGEAPKLLISDASSLESGVPSRFSGSGSGTEFTLTISSLQPDDFATYYCQQYYSSPTFGGGTKVEIK
B10: PE-87 D99A (antibody, V domains shown)
VH: QVQLVQSGVTLVQPGGSLRVSCAASGFTFSSYAMSWVRQAPGKGLEWVSAISGLGGSTYYADSVKGRFTISRDNSKNTLYLQMNSLRAEDTAVYYCAKAHRVWAAGYHFDYWGQGALVTVSS
VL: DIVLTQSPSTLSASVGDRVTITCRASQSISSWLAWYQQKPGEAPKLLISDASSLESGVPSRFSGSGSGTEFTLTISSLQPDDFATYYCQQYYSSPTFGGGTKVEIK
B11: PE-87 V102A (antibody, V domains shown)
VH: QVQLVQSGVTLVQPGGSLRVSCAASGFTFSSYAMSWVRQAPGKGLEWVSAISGLGGSTYYADSVKGRFTISRDNSKNTLYLQMNSLRAEDTAVYYCAKDHRAWAAGYHFDYWGQGALVTVSS
VL: DIVLTQSPSTLSASVGDRVTITCRASQSISSWLAWYQQKPGEAPKLLISDASSLESGVPSRFSGSGSGTEFTLTISSLQPDDFATYYCQQYYSSPTFGGGTKVEIK
B12: PE-87 F109A (antibody, V domains shown)
VH: QVQLVQSGVTLVQPGGSLRVSCAASGFTFSSYAMSWVRQAPGKGLEWVSAISGLGGSTYYADSVKGRFTISRDNSKNTLYLQMNSLRAEDTAVYYCAKDHRVWAAGYHADYWGQGALVTVSS
VL: DIVLTQSPSTLSASVGDRVTITCRASQSISSWLAWYQQKPGEAPKLLISDASSLESGVPSRFSGSGSGTEFTLTISSLQPDDFATYYCQQYYSSPTFGGGTKVEIK

target: EBOV GP[change] (Ebola virus) (UniProt Q05320)
Sequence (Q05320 33-501, chain 1 of 2): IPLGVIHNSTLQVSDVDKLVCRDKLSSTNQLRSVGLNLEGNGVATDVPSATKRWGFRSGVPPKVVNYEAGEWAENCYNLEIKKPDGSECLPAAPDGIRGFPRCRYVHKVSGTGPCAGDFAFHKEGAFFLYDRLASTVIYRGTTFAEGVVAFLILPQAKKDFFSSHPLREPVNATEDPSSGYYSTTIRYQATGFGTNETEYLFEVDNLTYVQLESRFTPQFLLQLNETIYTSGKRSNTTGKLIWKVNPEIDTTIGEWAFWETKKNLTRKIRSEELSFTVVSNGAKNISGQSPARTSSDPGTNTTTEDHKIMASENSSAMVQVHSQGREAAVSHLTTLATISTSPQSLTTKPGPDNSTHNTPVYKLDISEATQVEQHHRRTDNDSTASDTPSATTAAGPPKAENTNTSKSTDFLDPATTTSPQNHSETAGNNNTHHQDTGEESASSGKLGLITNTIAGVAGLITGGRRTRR
Sequence (Q05320 502-650, chain 2 of 2): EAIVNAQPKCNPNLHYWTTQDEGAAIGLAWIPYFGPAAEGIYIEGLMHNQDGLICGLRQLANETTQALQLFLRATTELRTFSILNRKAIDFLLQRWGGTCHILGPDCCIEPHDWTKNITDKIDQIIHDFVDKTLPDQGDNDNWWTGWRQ

Compared with B1, B2 is higher in Kd: less than 0.001 nM for the first, 5.9 nM for the second.

First: B3
Second: B4
The Kd of the first is 2.1-fold lower: 4.5 nM for the first, 9.4 nM for the second. The first binds more tightly here.

B5 and B6 are the same in Kd: 1.3 nM for the first, 1.3 nM for the second.

First: B7
Second: B8
The Kd of the first is 1000-fold lower: 0.03 nM for the first, 30 nM for the second.

First: B9
Second: B10
The Kd of the first is 4.1-fold lower: 18 nM for the first, 74 nM for the second.

First: B11
Second: B12
The Kd of the first is 9.2-fold lower: 4 nM for the first, 37 nM for the second.
